Measured values as given in patent publication CN101357942A.

How the values were obtained:
[1] = biological target: 天然Stx2 (natural Shiga toxin II of enterohaemorrhagic E. coli O157:H7) (肠出血性大肠杆菌(EHEC) O157:H7) (UniProt P09385)
[2] = biological target: 天然Stx2 (natural Shiga toxin II of enterohaemorrhagic E. coli O157:H7) (肠出血性大肠杆菌(EHEC) O157:H7) (UniProt P09385); assay: cell-based or functional assay

UniProt P09385, sequence (P09385 23-319, chain 1 of 2): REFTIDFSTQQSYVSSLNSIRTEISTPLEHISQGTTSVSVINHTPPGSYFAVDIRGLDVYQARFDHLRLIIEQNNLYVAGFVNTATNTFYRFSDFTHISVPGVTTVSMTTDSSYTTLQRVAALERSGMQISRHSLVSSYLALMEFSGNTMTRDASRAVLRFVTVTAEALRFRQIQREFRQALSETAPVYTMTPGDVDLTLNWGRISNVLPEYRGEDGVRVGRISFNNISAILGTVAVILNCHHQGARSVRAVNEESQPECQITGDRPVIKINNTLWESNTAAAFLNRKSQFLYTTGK
UniProt P09385, sequence (P09386 20-89, chain 2 of 2, further chain): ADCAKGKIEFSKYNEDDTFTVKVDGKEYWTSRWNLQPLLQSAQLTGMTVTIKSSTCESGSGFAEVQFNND

B1: 1F2Fab抗体 (recombinant Fab of 1F2, expressed from Pcomb3X-1F2Fab in E. coli XL-blue) (Fab, V domains shown)
VH: SGGGLVQPGGSLKLSCAASGFTFSVYGMSWVRQTPDKRLELVATINNNGGSTYYPDSVKGRFTISRDNAKNTLYLQMSSLKSEDTAMYYCASIPLFGNYWGQGTSVTVSS
VL: MTQTPLSLPVSLGDQASISCRSSQSIVHSNGNTYLEWYLQKPGQSPKFLIYKVSRFSGVPDRFSGSGSGTDFTLKISRVEAEDLGVYYCFQGSHVPWTFGGGTKLEIKR
Question: With B1 as the binder, how does the affinity relative to parental mAb 1F2 [1] read?
Answer: Its affinity relative to parental mAb 1F2 is 85%.

Question: And the 对Stx2细胞毒作用的抑制率 (Vero cells, MTT) [2]?
Answer: The 对Stx2细胞毒作用的抑制率 (Vero cells, MTT) was 83%.
